Assay results reported in the RNAGym collection of RNA variant scans (doi:10.1093/molbev/msab373).

B1: Azoarcus group I ribozyme (parent)
chain: GUGCCUUGCGCCGGGAAACCACGCAAGGGAUGGUGUCAAAUUCGGCGAAACCUAAGCGCCCGCCCGGGCGUAUGGCAACGCCGAGCCAAGCUUCGGCGCCUGCGCCGAUGAAGGUGUAGAGACUAGACGGCACCCACCUAAGGCAAACGCUAUGGUGAAGGCAUAGUCCAGGGAGUGGCGAAAGUCACACAAACCGG

Variants of: B1
Assay: reverse-splicing fitness (ratio to wild type); higher = more active; in vitro selection; Mg2+ level not given
In short: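 An in vitro group I ribozyme library with randomized positions was T7-transcribed and gel-purified. In triplicate, 10 pmol RNA in EPPS pH 7.5 was reacted with 50 pmoles of a 30-nt RNA substrate for 1 h at 37 °C across several added MgCl2 levels (1–48 mM), then stopped with EDTA. Products were reverse transcribed from a substrate-complementary primer, PCR-amplified and sequenced (HiSeq 4000). Fitness is a variant's read proportion after selection over that before, normalised to wild type.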

Variant | reverse-splicing fitness
C82U A111U A145U C169A U176A | 0.00935
C82U A111U A145U C169A U176C | 0.00904
C82U A111U A145U C169A U176G | 0.00592
C82U A111U A145G C150U C169U | 0.0113
C82U A111U A145G C150U C169A | 0.0102
C82U A111U A145G C150U C169G | 0.00883
C82U A111U A145U C150G U176A | 0.0103
C82U A111U A145U C150G U176G | 0.00449
C82U A111U A145U C150G U176C | 0.019
C82U A111U A145G C150G C169U U176G | 0.00654
C82U A111U A145G C150G C169U U176C | 0.0115
C82U A111U A145G C150G C169U U176A | 0.0114
C82U A111U A145C C150G C169A U176A | 0.00853
C82U A111U A145C C150G C169A U176G | 0.006
C82U A111U A145C C150G C169A U176C | 0.0066
C82U A111U A145U C169G U176A | 0.0101
C82U A111U A145U C169G U176C | 0.0101
C82U A111U A145U C169G U176G | 0.0053
C82U A111U A145G U176A | 0.107
C82U A111U A145G U176C | 0.159
C82U A111U A145G U176G | 0.0229

Variant | reverse-splicing fitness
C82U A111U A120U A145G C169U | 0.00389
C82U A111U A145C C150G C169A | 0.00853
C82U A111U A145C C150G C169U | 0.00864
C82U A111U A145C C150G C169G | 0.0072
C82U A111U A120U A145U C150A U176G | 0.00252
C82U A111U A120U A145U C150A U176C | 0.00477
C82U A111U A120U A145U C150A U176A | 0.00357
C82U A111U A120U U176C | 0.0117
C82U A111U A120U U176G | 0.00321
C82U A111U A120U U176A | 0.00769
C82U A111U A120U C150G U176C | 0.005
C82U A111U A120U C150G U176G | 0.00237
C82U A111U A120U C150G U176A | 0.00352
C82U A111U A145U C150A C169A | 0.0089
C82U A111U A145U C150A C169G | 0.00727
C82U A111U A145U C150A C169U | 0.0106
C82U A111U A120U C150G C169G U176G | 0.00254
C82U A111U A120U C150G C169G U176C | 0.00263
C82U A111U A120U C150G C169G U176A | 0.00411
C82U A111U A145C C150A C169G U176A | 0.0228
C82U A111U A145C C150A C169G U176G | 0.00573

Variant | reverse-splicing fitness
C82U A111U A145C C150A C169G U176C | 0.0138
C82U A111U A120U C150A C169U | 0.00428
C82U A111U A120U C150A C169A | 0.00469
C82U A111U A120U C150A C169G | 0.0044
C82U A111U C150A C169G U176A | 0.0193
C82U A111U A145C C150G | 0.0299
C82U A111U A145C C150U | 0.0602
C82U A111U A145C C150A | 0.0151
C82U A111U A145U C150A C169U U176C | 0.0118
C82U A111U A145U C150A C169U U176A | 0.0133
C82U A111U A145U C150A C169U U176G | 0.00593
C82U A111U A120U A145U C150G C169U | 0.00272
C82U A111U A120U A145U C150G C169G | 0.00274
C82U A111U A120U A145U C150G C169A | 0.0034
C82U A111U A145C C150G C169U U176C | 0.00969
C82U A111U A145C C150G C169U U176G | 0.00515
C82U A111U A145C C150G C169U U176A | 0.00804
C82U A111U A145G C169U | 0.0114
C82U A111U A145G C169G | 0.00856
C82U A111U A145G C169A | 0.00999
C82U A111U A120U A145U C150G U176A | 0.00312

Variant | reverse-splicing fitness
C82U A111U A120U A145U C150G U176C | 0.0047
C82U A111U A120U A145U C150G U176G | 0.00226
C82U A111U A120U A145G C169U U176G | 0.00207
C82U A111U A120U A145G C169U U176A | 0.00304
C82U A111U A120U A145G C169U U176C | 0.00323
C82U A111U A145U C169U U176G | 0.00446
C82U A111U A145U C169U U176C | 0.0127
C82U A111U A145U C169U U176A | 0.0125
C82U A111U A145U C150U U176C | 0.103
C82U A111U A145U C150U U176G | 0.0202
C82U A111U A145U C150U U176A | 0.0674
C82U A111U A145C U176C | 0.141
C82U A111U A145C U176A | 0.0966
C82U A111U A145C U176G | 0.0247
C82U A111U A120U C150A | 0.00701
C82U A111U A120U C150G | 0.00645
C82U A111U A120U C150U | 0.0175
C82U A111U A145G C150A U176C | 0.0426
C82U A111U A145G C150A U176A | 0.0215
C82U A111U A145G C150A U176G | 0.00953
